Publication PMC6511404
Read-outs that look alike come from different tables or passages of the source.

Key:
[1] = target: E. coli enolase, detagged (His tag removed by thrombin) (E. coli); assay: crystal structure
[2] = target: E. coli enolase, detagged (His tag removed by thrombin) (E. coli); assay: crystal structure; remark: listed apart in the source

Sequence of E. coli enolase, detagged (His tag removed by thrombin) (enzyme) (A1AEW7 2-432): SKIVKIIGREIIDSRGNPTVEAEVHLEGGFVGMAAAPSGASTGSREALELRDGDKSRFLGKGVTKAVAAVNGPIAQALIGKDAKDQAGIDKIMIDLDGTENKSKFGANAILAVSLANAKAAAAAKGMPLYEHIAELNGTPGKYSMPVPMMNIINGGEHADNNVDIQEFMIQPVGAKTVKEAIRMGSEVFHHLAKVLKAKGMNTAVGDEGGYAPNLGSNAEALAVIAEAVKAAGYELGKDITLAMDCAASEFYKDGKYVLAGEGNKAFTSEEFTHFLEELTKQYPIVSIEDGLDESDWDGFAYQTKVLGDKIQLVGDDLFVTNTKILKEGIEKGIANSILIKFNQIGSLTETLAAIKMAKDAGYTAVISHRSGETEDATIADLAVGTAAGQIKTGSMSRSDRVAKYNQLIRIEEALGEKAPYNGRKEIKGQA

stoichiometry N [1]: 6
stoichiometry N [2]: 2
Substance: E. coli enolase, detagged (His tag removed by thrombin) (enzyme)
